Molecular target: His-tagged human IL-18BP (human) (UniProt O95998)
Test: alphaLISA of free IL-18BP

Sequence of His-tagged human IL-18BP (human) (O95998 31-194): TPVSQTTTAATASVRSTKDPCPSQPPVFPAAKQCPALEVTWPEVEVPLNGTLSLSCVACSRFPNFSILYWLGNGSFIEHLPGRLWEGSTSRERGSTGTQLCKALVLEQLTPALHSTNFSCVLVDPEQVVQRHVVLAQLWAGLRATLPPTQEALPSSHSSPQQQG
Sequence of IL-18 polypeptide of SEQ ID NO: 1 (native sequence, human IL-18 37-193) (Q14116 37-193): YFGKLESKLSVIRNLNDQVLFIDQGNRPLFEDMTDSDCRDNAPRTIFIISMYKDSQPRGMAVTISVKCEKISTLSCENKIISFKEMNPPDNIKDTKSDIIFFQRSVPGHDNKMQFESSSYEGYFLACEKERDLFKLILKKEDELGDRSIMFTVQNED

Kd | Substance
969 nM | Modified IL-18 polypeptide of SEQ ID NO: 3 (Y01G, F02A, E06K, M51G, K53A, D54A, S55A, T63A) (from UniProt Q14116 37-193) (ligand)
10.7 nM | Modified IL-18 polypeptide of SEQ ID NO: 5 (S55A) (from UniProt Q14116 37-193) (ligand)
130 nM | Modified IL-18 polypeptide of SEQ ID NO: 7 (E06K, K53A) (from UniProt Q14116 37-193) (ligand)
12.3 nM | Modified IL-18 polypeptide of SEQ ID NO: 8 (E06K, S55A) (from UniProt Q14116 37-193) (ligand)
822 nM | Modified IL-18 polypeptide of SEQ ID NO: 10 (E06K, K53A, S55A, T63A) (from UniProt Q14116 37-193) (ligand)
0.03 nM | Modified IL-18 polypeptide of SEQ ID NO: 15 (C38S, C68S, C76S, C127S) (from UniProt Q14116 37-193) (ligand)
340 nM | Modified IL-18 polypeptide of SEQ ID NO: 18 (E06K, K53A, T63A) (from UniProt Q14116 37-193) (ligand)
198 nM | Modified IL-18 polypeptide of SEQ ID NO: 21 (K53A, T63A) (from UniProt Q14116 37-193) (ligand)
446 nM | Modified IL-18 polypeptide of SEQ ID NO: 22 (E06K, K53A, C38S, C68S, C76S, C127S, K70C) (from UniProt Q14116 37-193) (ligand)
59.1 nM | Modified IL-18 polypeptide of SEQ ID NO: 71 with a 30 kDa PEG attached at residue C68 (E6K, C38S, K53A, C68-30kDPEG) (from UniProt Q14116 37-193) (ligand)

Further lines, the substance ahead of its results:

Substance | Kd
IL-18 polypeptide of SEQ ID NO: 1 (native sequence, human IL-18 37-193) (from UniProt Q14116 37-193) (ligand) | 0.67 nM
Modified IL-18 polypeptide of SEQ ID NO: 4 (K53A) (from UniProt Q14116 37-193) (ligand) | 514 nM
Modified IL-18 polypeptide of SEQ ID NO: 6 (E06K) (from UniProt Q14116 37-193) (ligand) | 0.13 nM
Modified IL-18 polypeptide of SEQ ID NO: 9 (K53A, S55A) (from UniProt Q14116 37-193) (ligand) | 500 nM
Modified IL-18 polypeptide of SEQ ID NO: 16 (C38S, C68S, C76S, C127S, K70C) (from UniProt Q14116 37-193) (ligand) | 0.21 nM
Modified IL-18 polypeptide of SEQ ID NO: 19 (T63A) (from UniProt Q14116 37-193) (ligand) | 2.59 nM
Modified IL-18 polypeptide of SEQ ID NO: 20 (E06K, T63A) (from UniProt Q14116 37-193) (ligand) | 0.83 nM
Modified IL-18 polypeptide of SEQ ID NO: 23 (K53A, T63A, C38S, C68S, C76S, C127S, K70C) (from UniProt Q14116 37-193) (ligand) | 913 nM
Modified IL-18 polypeptide of SEQ ID NO: 70 (E6K, K53A, C38S, C76S, C127S) (from UniProt Q14116 37-193) (ligand) | 436 nM
Modified IL-18 polypeptide of SEQ ID NO: 71 (E6K, C38S, K53A) (from UniProt Q14116 37-193) (ligand) | 50.2 nM
